Patent US8343491B2, “Anti-HIMF antibodies to treat lung diseases” (The Johns Hopkins University, priority 2006, dated 2013)
“Also recorded” adds a separate entry of the source. Each block holds one molecule with its values, some of them ahead of it.

Tests used:
bone marrow cells [1] = assay: Cell migration assay (Transwell); type: cell-based, mouse
Procedure: FIGS. 6A-6D. CD45 positive cell migration was stimulated by HIMF and inhibited by BTK inhibitor. Bone marrow cells were cultured on cover glass in 12 well plates as described in FIG. 5A-5B. The cells were then treated with BSA (FIG. 6A) or HIMF (FIG. 6B and FIG. 6C) for 4 days and fixed with pre-cooled methanol before immunocytochemistry with the indicated first antibodies. DAPI staining was used to show the nuclei. […] 5×10^5 bone marrow cells in 2% fetal bovine serum DMEM culture medium were transferred to each transwell in the presence of 50 nM BSA, HIMF, or HIMF plus 25 μM LFM-A13, respectively. The cells were cultured for 6 hours, fixed in pre-cooled methanol and stained by Coomassie Blue solution. The cells growing on the surface of the membrane were removed after staining. Bone marrow cell migration was induced by HIMF and this induction was inhibited by BTK inhibitor LFM-A13 (FIG. 6D).
Cell migration assay. Bone marrow cells were detached with trypsin-EDTA, washed in serum-free medium, and then counted and adjusted to 10^6 cells/ml. […]
BTK stimulated the migration of bone marrow cells. […] Cell migration was further determined by partial trypsin digestion culture, leaving the cells to grow in colonies on a cover glass.

BTK [2] = target: T1, BTK (Mus musculus, UniProt P35991); assay: BTK redistribution in bone marrow cells (immunofluorescence); type: cell-based; settings: 50 nM HIMF, 5 minutes
T1 construct: incubated with bone marrow cell lysate or hypoxia tissue homogenate for three hours; endogenous in cells; host or cells: lysate of cultured mouse bone marrow cells; in the second result, homogenate of mouse hind limb hypoxic tissue
T1 sequence (P35991 whole entry): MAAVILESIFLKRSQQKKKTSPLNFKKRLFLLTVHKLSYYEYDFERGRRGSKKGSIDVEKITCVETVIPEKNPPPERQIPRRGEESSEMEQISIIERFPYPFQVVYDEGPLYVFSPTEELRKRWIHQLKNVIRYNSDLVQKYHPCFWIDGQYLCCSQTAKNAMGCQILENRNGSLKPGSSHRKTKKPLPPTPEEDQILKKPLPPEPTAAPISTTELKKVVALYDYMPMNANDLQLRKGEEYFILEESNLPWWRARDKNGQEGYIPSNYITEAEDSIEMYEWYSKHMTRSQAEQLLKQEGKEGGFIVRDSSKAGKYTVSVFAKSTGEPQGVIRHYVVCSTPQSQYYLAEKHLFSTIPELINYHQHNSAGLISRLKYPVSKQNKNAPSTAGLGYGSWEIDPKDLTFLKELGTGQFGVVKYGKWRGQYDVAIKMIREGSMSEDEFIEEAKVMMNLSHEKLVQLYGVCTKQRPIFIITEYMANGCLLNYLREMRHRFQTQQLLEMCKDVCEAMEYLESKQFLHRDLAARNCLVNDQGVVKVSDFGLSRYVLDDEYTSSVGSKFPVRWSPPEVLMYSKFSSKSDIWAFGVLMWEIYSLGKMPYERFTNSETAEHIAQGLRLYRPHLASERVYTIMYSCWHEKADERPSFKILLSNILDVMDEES
Procedure: FIGS. 3A-3B. BTK redistribution in response to the stimulation of HIMF. Primary cultured bone marrow. Bone marrow cells were cultured on cover glass and then treated with 50 nM BSA (FIG. 3A) or HIMF (FIG. 3B) for five minutes. Cells were fixed by pre-cooled methanol before indirect immunofluorescence. BTK or FYN, a binding partner for BTK, was redistributed in bone marrow cells after the treatment of HIMF.
Immunofluorescence microscopy. Bone marrow or COS-7 cells were cultured on coverslips in DMEM containing 10% FBS and fixed in pre-cooled methanol for 5 minutes. The cells were then permeabilized with 0.2% Triton X-100 in PBS and blocked with 0.5% bovine serum albumin in PBS followed by incubation with the indicated antibodies. FITC-donkey anti-rabbit IgG and Rhodamine-donkey anti-mouse IgG were used as second antibodies. For transfection experiments, cells were cultured overnight and transfected with indicated constructs in serum-free medium for four hours and changed into DMEM containing 10% FBS overnight. Cells were fixed and stained as above. A 510 confocal microscope was used for the imaging.
Translocation of BTK in bone marrow cells in response to the stimulation of HIMF. […] The activation of BTK family tyrosine kinases will result in their stimulated translocation to membrane fractions (24). […]

[3] = test system: hindlimb ischemia tissues; assay: Mouse hindlimb ischemic model, agarose gel implant; type: in vivo; settings: 100 nM HIMF in 2% agarose gel implanted, two weeks, versus BSA gel
Procedure: FIGS. 7A-7B. […] Mouse hind limb ischemia model was established and agarose gel containing 100 nM BSA or 100 nM HIMF (gels were cut into 2×5×8 mm pieces) were buried subcutaneously at the sites of ischemia. Two weeks later, the ischemic tissues were collected for immunocytochemistry. The tissue treated by HIMF (FIG. 7B) was shown increasing in CD34 positive cells comparing to that of BSA treated tissue (FIG. 7A).
Mouse hindlimb ischemic model. Animals were subjected to left femoral artery ligation and excision to create unilateral hind limb ischemia. For each animal, 25 mg/kg ketamine plus 10 mg/kg xylazine was injected subcutaneously. Skin incisions were performed at the middle portion of the left hind limb overlying the femoral artery. The femoral artery was gently isolated. First the proximal portion and then the distal portion of the femoral artery were ligated, and then other arterial branches as well as veins were dissected free and excised. The overlying skin was closed using two surgical staples. Tissue in the hypoxia area was removed and homogenized in TBST buffer two weeks after the operation.
HIMF promoted angiogenesis in hypoxic tissues. Hypoxia can induce pulmonary artery adventitial remodeling and neovascularization. […]

Fyn = Fyn phosphorylation in bone marrow cells; type: cell-based, mouse; settings: bone marrow cells stimulated with HIMF
Procedure: (§1) FIGS. 4A-4C. BTK self-phosphorylation in response to the treatment of HIMF. Three plates of primary cultured bone marrow cells that were passed from the same plate of cells were cultured to confluence and then treated with HIMF (5 minutes and 30 minutes), or without HIMF. The cell lysates were used for the Western blot. The membrane was first probed by anti-BTK phosphorylation (Y223) antibody and then was probed by anti-BTK antibody after stripping (FIG. 4A). Five plates of primary cultured bone marrow cells that were passed from same plates of cells were cultured to confluence and then treated with HIMF (2.5, 5, 10 and 20 minutes respectively) or without HIMF. The cell lysates were used for the Western blot. The membrane was first detected by anti-BTK phosphorylation (Y223) antibody and then by anti-tubulin antibody (FIG. 4B). The same samples were used for the detection of fyn phosphorylation (FIG. 4C). Phosphorylation of Y416 upregulates enzyme activity. Phosphorylation of Y528 negatively regulates enzyme activity.
(§2) Protein phosphorylation assays. […] The supernatants of the samples were quantified for protein concentration and subjected to electrophoresis on a 4-15% SDS-polyacrylamide gel (Bio-Rad). […]

BTK [4] = target: T1, BTK; assay: Protein phosphorylation assay (BTK Y223) in bone marrow cells; type: cell-based; settings: 50 nM HIMF, minutes
Procedure: as §1, §2

bone marrow cells [5] = assay: Cell migration out of colony (partial trypsin digestion culture); type: cell-based, mouse; settings: 50 nM HIMF, 2% FBS DMEM, four days
Procedure: FIGS. 5A-5B. HIMF stimulated bone marrow cell migration. Bone marrow cells were partially digested by trypsin-EDTA solution, washed by PBS and then sucked up and transferred to twelve well plates using a 1000 μl tip. The cells were cultured in 2% fetal bovine serum DMEM with 50 nM BSA or HIMF for four days. More cells migrated out of the original cell colony in the presence of HIMF than those in BSA (FIG. 5A). 5×10^5 bone marrow cells were cultured in transwell plates in the presence of 50 nM BSA or HIMF. The cells were cultured overnight, fixed in pre-cooled methanol and stained by Coomassie Blue solution. The cells growing on the surface of the membrane were removed after staining (FIG. 5B). A Nikon Eclipse microscope was used for the imaging.
BTK stimulated the migration of bone marrow cells. To test whether HIMF stimulates the migration of bone marrow cells, bone marrow cells were cultured in transwell plates in the presence of […] BSA or HIMF. The cells were cultured overnight, fixed in methanol and stained by Coomassie Blue solution. Cells growing on the surface of the membrane were removed by cotton tipped applicators before imaging. […] Cell migration was further determined by partial trypsin digestion culture, leaving the cells to grow in colonies on a cover glass.

BTK [6] = target: T1, BTK; assay: GST pull-down assay; type: binding
Procedure: FIGS. 1A-1B. BTK is a HIMF-binding molecule. GST-HIMF fusion protein and GST were incubated with glutathione-sepharose beads and then incubated with bone marrow cell lysate respectively in TBST buffer at 4° C. for three hours. The beads were washed five times by TBST and loading buffer was added to the samples. After electrophoresis, the gel was stained by Coomassie Blue. […] GST-HIMF and GST were first bonded to glutathione sepharose and then incubated with the lysate of bone marrow cells (left) or homogenate of ischemic tissue (right) at 4° C. for three hours and then washed by TBST solution three times. After SDS-PAGE and transfer to membrane, the samples were detected by anti-BTK and anti-GST antibodies (FIG. 1B).
GST pull-down assay. Bone marrow cells were cultured in ten 150×25 mm plates until confluence and collected for lysate using TBST buffer. Lysate from ten plates of bone marrow cells was used for HIMF-binding partner screening assay. Hypoxia tissue homogenate was prepared as described above. BL21 bacterial lysates for GST and GST-HIMF were first incubated with glutathione agarose in 0.1% TBST buffer for three hours and then washed three times by 0.1% TBST buffer. The GST and GST-HIMF binding glutathione agaroses were incubated with bone marrow cell lysate or hypoxia tissue homogenate for three hours and then washed 3-5 times before SDS-PAGE.

Molecule: C/C(O)=C(\C#N)C(=O)Nc1cc(Br)ccc1Br [LFM-A13, reference compound]
- Inhibition of HIMF-induced bone marrow cell migration (bone marrow cells [1]; 25 μM LFM-A13 plus 50 nM HIMF, transwell, 6 hours): inhibited; also recorded: completely blocked

B1: HIMF: Hypoxia-induced mitogenic factor protein (Flag-tagged mouse HIMF) applied to cells and tissue (protein)
chain: DETIEIIVENKVKELLANPANYPSTVTKTLSCTSVKTMNRWASCPAGMTATGCACGFACGSWEIQSGDTCNCLCLLVDWTTARCCQLS
- BTK translocation in bone marrow cells (BTK [2]): rapidly induced recruitment of BTK to the leading edge of cells
- Bone marrow cell migration (transwell) versus BSA (bone marrow cells [1]; 50 nM HIMF, overnight): markedly promoted; also recorded: More cells migrated out of the chamber
- Angiogenesis in hindlimb ischemia tissues [3]: stimulated angiogenesis
- CD34 positive cells in ischemic tissue [3]: increased
- Fyn activity (phosphorylation Y416/Y528) (Fyn): not changed in activity
- BTK self-phosphorylation (Y223) (BTK [4]): stimulate the self-phosphorylation of BTK
- Bone marrow cell migration out of the colony versus BSA (bone marrow cells [5]): more bone marrow cells were stimulated to migrate out of the colony

- Pull-down of BTK from bone marrow cell lysate (BTK [6]; bone marrow cell lysate, GST control did not): pulled down BTK
- Binding of BTK from hind limb hypoxic tissue homogenate (BTK [6]; homogenate of mouse hind limb hypoxic tissue, not to GST): shown to bind
B2: GST-HIMF: GST fusion protein of mouse HIMF expressed in BL21 cells (protein)
chain: B1 chain
modifications: left off: a dimerising Fc or GST
notes: GST fusion protein of mouse HIMF expressed in BL21 cells
